Reference: US20120130079A1

Legend:
[1] = biological target: purified His-tagged Stat3 (murine Stat3, recombinant, expressed in BL21(DE3)) (murine) (UniProt P42227); assay: fluorescence polarization competition; competitor/probe 5-carboxyfluorescein-GpYLPQTV-NH2 (10 nM), His-Stat3 150 nM
[2] = biological target: purified His-tagged Stat3 (murine Stat3, recombinant, expressed in BL21(DE3)) (murine) (UniProt P42227); assay: SPR (SensiQ), peptide as analyte over His-Stat3 immobilised on HisCap/Ni-NTA sensor chip

Sequence of purified His-tagged Stat3 (murine Stat3, recombinant, expressed in BL21(DE3)) (murine) (P42227 whole entry): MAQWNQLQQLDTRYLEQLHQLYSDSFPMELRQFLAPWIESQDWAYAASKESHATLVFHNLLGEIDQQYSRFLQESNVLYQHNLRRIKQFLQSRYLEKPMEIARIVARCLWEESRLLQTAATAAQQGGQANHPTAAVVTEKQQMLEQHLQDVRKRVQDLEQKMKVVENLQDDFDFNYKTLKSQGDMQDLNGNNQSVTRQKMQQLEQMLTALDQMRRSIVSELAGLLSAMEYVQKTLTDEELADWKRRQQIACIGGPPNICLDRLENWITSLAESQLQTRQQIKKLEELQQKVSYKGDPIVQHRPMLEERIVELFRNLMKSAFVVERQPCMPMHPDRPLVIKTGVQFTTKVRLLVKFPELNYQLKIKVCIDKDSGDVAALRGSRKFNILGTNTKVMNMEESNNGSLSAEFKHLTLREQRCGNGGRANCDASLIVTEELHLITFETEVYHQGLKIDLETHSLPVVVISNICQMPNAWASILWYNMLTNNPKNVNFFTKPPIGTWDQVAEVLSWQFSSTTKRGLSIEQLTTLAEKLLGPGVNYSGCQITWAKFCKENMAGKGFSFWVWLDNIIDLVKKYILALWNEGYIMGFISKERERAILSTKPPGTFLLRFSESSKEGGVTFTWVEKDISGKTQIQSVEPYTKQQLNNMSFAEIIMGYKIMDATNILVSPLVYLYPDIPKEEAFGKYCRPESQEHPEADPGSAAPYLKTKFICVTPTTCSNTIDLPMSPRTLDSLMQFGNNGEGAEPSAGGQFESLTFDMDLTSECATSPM

Substance: GpYLPQTV-NH2, high affinity Stat3-binding phosphoTyr peptide derived from the interleukin-6 receptor subunit gp-130
- IC50 [1]: 0.3 µM
- Kd [2]: 0.024 µM
